This data set can be described thus: soluble on expression in E. coli; label from the status in PepcDB or PDB records.
Take “MANIEIRQESPSAFYIKVHETDNVAIIVNDHGLKAGTRFPDGLELTEHIPQGHKVALTDIPAHGEIIRYGEVIGYAVRDIPRGSWIDESLVELPKAPPLNTLPLATKVPEPLPPLEGYTFEGYRNADGSVGTKNLLGITTSVHCVAGVVDYVVKVIERDLLPKYPNVDGVVGLNHLYGCGVAINAPAAVVPIRTIHNIALNPNFGGEVMVIGLGCEKLQPERLLEGTEDVPAIAVESASIVRLQDEQHVGFKSMVDDILRVAERHLTKLNQRQRETCPASELVVGMQCGGSDAFSGVTANPAVGYASDLLVRCGATVMFSEVTEVRDAIHLLTPRAINEAVGKRLLDEMAWYDNYLDMGKTDRSANPSPGNKKGGLANVVEKALGSIAKSGKSAIVEVLSPGQRPTKRGLIYAATPASDFVCGTQQVASGITVQVFTTGRGTPYGLMAVPVIKMATRTELANRWYDLMDINAGTIATGEETIEDVGWKLFHFILDVASGRKKTFSDQWGLHNQLAVFNPAPVT”: the “soluble on expression in E. coli” value is given as “not soluble”.
Under “MANKETDILIIGGGLTGASLSLALQGLGFSVTLVESRPYSDKVNPDFDARSLALSPASQRILAMLGVWEILKEYTTPIHMIHVSDQHRFGASRLHGEKNSPLGYVVEMQYINRALSILINKEHLLTPAALKSIDFNNSTATVAHGDDMISIRAQLIVAADGTESMTRYLCNLPVKIKDYAQDAIVANVGLIKPHGNRAFERFTPNGPLALLPMMNDKMSLVWASKPEEAKRLVMLNDDDFLRELQTAFGYRLGRFGKVGKRYSYPLKQVLMPQQTKWPVVFVGNAAHTLHPVAGQGFNLGLRDIAALAQCISQKGLNPQMLEHYLQLRAHDQQMITWLTDGLIHLFTSRLPGMGVARNLGLLALDNIPALKNLLARYARGFGGITPDLVCEIALSAGEFQLEHHHHHH” stands “soluble”.
Under “MANLFKLGAENIFLGRKAATKEEAIRFAGEQLVKGGYVEPEYVQAMLDREKLTPTYLGESIAVPHGTVEAKDRVLKTGVVFCQYPEGVRFGEEEDDIARLVIGIAARNNEHIQVITSLTNALDDESVIERLAHTTSVDEVLELLAGRK” stands “soluble”.
Under “MANLQNMSSSPKHTNGSSERSENCGELCVVCGDKASGRHYGAVSCEGCKGFFKRSIRKRIGYVCRSQKDCPVTKFHRNRCQYCRLRKCLSMGMRSESVQAERRPVNNSSMLCNNDNNQQNTTPEHLSPNLLLSLVKLEHETKLGGLEALIKPGSPVMLQNTQDYMDVKRESIGEDEMTVIGLVPPSASPTSSGVGSSSSISDDSGPIYTSERARFEISVPLNTQNPRNHQYISEITTRLLFLTVHFVKDSRVSLRTSTMEGLLKSKWCDLYILALMQTADKIKLGQLLDNLTNQMAMGMECGQYSAEKFEKISEQMQRLLQLSQLFASRELTAVEYAYLKMISFTAQDLPSSMASPETRSVNQMASQELFEYVSSSKSTQNHMSNEHINVDDSTSEDNDTHVTSQQSSVNIAAERFSRILQLLPCLRWFDPATIVEIFFSGLIGPMSIETIIPFVLQMNLMSFFDQKMELGSGGASDTLSTSSLSEMMNNQ” stands “not soluble”; under “MANVYTAEATATGGRAGTTRSSDDRLNLDLSVPAEMGGDGGPGTNPEQLFAAGYAACFQGALGVVSRRNKIDVPADSTITARVGLQKAGLAFALDVELEGHFPGLSREQAEGLMHAAHEVCPYSAATRNNVDVRLKVRE”, “soluble”.
On to “MAPKQPEKIENPPMASAPSSEKESGSTENEYGSSGEETNSSDDEHEEARDNVISTPLSFGQELVSFFKVENLTYLGIDEAKWIAYWDMVKDGPKKREVEKQLKKMLAMQMELFMMRTGFTKEVATVLFKQDNASSSGK”, for which the “soluble on expression in E. coli” value is given as “not soluble”.
For “MAPKTGETVVEKMEVDEAKQDVPATEPAKDLNAIAVENIKEQLAALDKGEEHLITRVLQVLPKTRKQINDNVLYKLVSSHLSSDAQFAEGMLKYLHYTPAADTEVQPMDTSNVKTKSPKKGVKPVFASPESDCYLRLLVLLHLYAQKKNTEALALGENQLTSIYNFDRRTLDGLAAKTLYFLCVIYEREGRLFDHQGFLNSRLRTATLRNFSESQAVLICWLLRCYLINRQYQSAAHLVSKVAFPDNASNNDLARYMYYQGRIKALQLDYNSAAGYFLQAQRKAPQEGAIGFKQAVQKWVVVIGLLQGEIPDRSVFRQPIYRKCLAHYLDLSRGVRDGDVARFNHNLEQFKTQFEADDTLTLIVRLRQNVIKTAIKQISLAYSRIYIKDIAKKLYITNETETEYIVAKAIADGAIDAVITSDVRDGPRYMQSSETADIYRTSEPQAHFDTRIRYCLELHNQAVKALRYPPKKKIAVETIEQAREREQQELEFAKELADEDDDDF”, the “soluble on expression in E. coli” value is “not soluble”.
Under “MAPPEGGEYLHKVTANSMSVNGDVPETVTAALADQRVEGRVCLEAGAGVGNTTAGLLAAGAKRVYAVTNDADHAATVRDRIGDRNADRLAVIEADLRATPLATDSVDLVAAHGLCNVLPPAELAPIAAELTRVAKPDGCLVVDDYAVPPADAAVNRLFALENAAARVVDGRPVLTFYPPAVLVAVFAANGWSVERRKTLLNPVPWTEAHLDAHAEVVREYAAALPDSLGEPLTAMAEDLVAAIGSERTGTMYSLAFRRADA” stands “not soluble”; under “MAPTLAEAEKFLRNSKIDKIVLEKLAEILVTTMDDWNLIADQKVAESVWVVLTEAGRSGNLSENLGDGDVAKQLKSVFEKIRLRLQAQLGTIQWKNDELVDYDVTISKNNKSSLHADHTFQRVVLTLKVIPAGKMDVEALVVDFDEAQLNDFIWKLLEAKAMMDRIQKRVESR”, “not soluble”.
Under “MAQENSTVKPTQAELTLLNVLWKMGPATVRQVHDVVSTTQKTGYTTVLKILQIMHEKSLVIRDESNRAHVYAAANSQTQTQSSLIKDLISKAFGGSTSKLVMRAIDDSTSEQEINDIRQLLNSLEK” stands “not soluble”; under “MAQFLEKATSALSEAKESVTSTAESVTASLTDAEKTVNQTARSTLTDAETTVAASVETVKTEAAAAPDKASGVSTQAKDAVDKAFSRGIEGAKSLLQTFEAKSSDISSKLVGGVTNLVSGASSSTVANRDLPVSTDNQPLLASGEKTPWWKNCCGVLDLFKKDT”, “soluble”; under “MAQKVEAGGGAGGASWDDGVHDGVRKVHVGQGQDGVSSINVVYAKDSQDVEGGEHGKKTLLGFETFEVDADDYIVAVQVTYDNVFGQDSDIITSITFNTFKGKTSPPYGLETQKKFVLKDKNGGKLVGFHGRAGEALYALGAYFATTTTPVTPAKKLSAIGGDEGTAWDDGAYDGVKKVYVGQGQDGISAVKFEYNKGAENIVGGEHGKPTLLGFEEFEIDYPSEYITAVEGTYDKIFGSDGLIITMLRFKTNKQTSAPFGLEAGTAFELKEEGHKIVGFHGKASELLHQFGVHVMPLTN”, “soluble”.
On to “MAQNLPTIALLATGGTIAGSGVDASLGSYKSGELGVKELLKAIPSLNKIARIQGEQVSNIGSQDMNEEIWFKLAQRAQELLDDSRIQGVVITHGTDTLEESAYFLNLVLHSTKPVVLVGAMRNASSLSADGALNLYEAVSVAVNEKSANKGVLVVMDDTIFSVREVVKTHTTHVSTFKALNSGAIGSVYYGKTRYYMQPLRKHTTESEFSLSQLKTPLPKVDIIYTHAGMTPDLFQASLNSHAKGVVIAGVGNGNVSAGFLKAMQEASQMGVVIVRSSRVGSGGVTSGEIDDKAYGFITSDNLNPQKARVLLQLALTKTNDKAKIQEMFEEY”, for which the “soluble on expression in E. coli” value is “soluble”.
Under “MAQPYLPAEKFLSRKQETILLDEDEPAVVSSVRISPKKPYHVATTSSVRLTLYDTVVCEPLNLFSRFKKGVCSIDFRHDGRLLAIGGDEGKVRIFDVEKTTGSSKVALRVMQASQSTVKSVHFSPRGDTVFSMADDGKIKQYRVADTAYGVNAVPIIEIQAHEDAIRCGAVSSINDHIVLTGGYDHKVRLWDIRSKEKSLELDCEHPVESVLFLPGEQLIATAAGPIVKIWDTTTGRQLTALQAHYKTVTSLRLATNSTCLLSAGIDRRVNAFRTTNYSLINSWSMPSPVLDIDVSRDDQTMAIGMGNLLALYRRAEIKKEATASAAIEDKRSLIRTSAPPVKLVEKDRDMQKVDVVAKNADKLKIPKIDGMLSNFKHAAVIKLLFGGKFRSAMDTAVVSYLRVIVMRGAIHRALAGQERSVQKNILVFLNHNLYKAQYFSTLKEVVNAFFDVYALEKLDKDVVKHVQSLRGSLGRELEVQKMISSLIGSIDLIVSTTKMNVKSSSTALIEDNDVFGEPTIRARDLDELKPSDQGAEEEYEENMQIN” stands “not soluble”; under “MAQSNTTTTTLVVKSEDQEEVQEEHVLRLRAPPSPPHVTWAEGVVDNEHMGRLKSNCCCIYVAPRQWDDPSTWEPNEYETEHCRGHTLPERKKKKEDGGDEGDDENKENKDNKDNKDNKDNKDNNGCGCDHC”, “not soluble”.
Regarding “MAQTTLIKNVNGYTFTDNSLTQFSAISFTDDIINKVYPIGAVLPASKGVIVIDGQGQTMLPGLIDAHGHVIGYGHSLEHHHHHH”, the “soluble on expression in E. coli” value is “not soluble”.
Under “MAQVKTQRLYYSLKDYFKEKYGKRVQKITVALPFTCPNRDGTKGRGGCTYCYDGSKPSMLSPVIPLEVQIKEGIERAKKKYGEDIYFTIYYQSYTNTYADIETLKKVYDTALKFEGVVGIDVGTRPDCAPEEVLDLLEYYANKGLEVWVEYGLQSANFETLKKINRQHGVSDFVDAVLRTKKRNLKVCAHMIIGLPGETREDFIETAKLIASLPIDGIKIHPLHVIKGTVMEKQYLNEEFKTLTLEEYAEYCADVIELLPPDMVVHRITGETDEERLIAPEWCTFKYKNAVIQKVRETLERRGTYQGARYPFYKYGVLEHHHHHH” stands “soluble”; under “MAREKVSLTEFNLFSEGILEQGSSVRALEWAPIVPFADRAGFEQESRKALKKDFAIIELLANGNTIPAQSRTQYAPLYYIYPQYNNQEALGLDVYSNPTHILSMQVVVNSKAVIASAPITLVQDELAKPGMLFSKAVFLPPEVNELASNEAQQKLSIIKEGKLLGFVVAVAQFDSFFEQLAQQKEQEVSFFIQDVSGSQPLSLFGQAFPTVNRHVDTITIEVFSRLWQIDIALEHHHHHH”, “not soluble”.
Consider “MARGPGPLGMPRPDTVAMPKRGKRLKFRAHDACSGRVTVADYANSDPAVVRSGRVKKAIANAVQQEVKSLCGLEASQVPAEEALSGAGEPCDIIDSSDEMDAQEESIHERTVSRKKKSKRHKEELDGAGGEEYPMDIWLLLASYIRPEDIVNFSLICKNAWTVTCTAAFWTRLYRRHYTLDASLPLRLRPESMEKLRCLRACVIRSLYHMYEPFAARISKNPAIPESTPSTLKNSK”, for which the “soluble on expression in E. coli” value is “not soluble”.
Under “MARIRVVQGDITEFQGDAIVNAANNYLKLGAGVAGAILRKGGPSIQEECDRIGKIRVGEAAVTGAGNLPVRYVIHAAVLGDEPASLETVRKATKSALEKAVELGLKTVAFPLLGTGVGGLPVEAVARVMLEEIKKAPDTLEVTLYGYREEDAEAIRRAL” stands “soluble”.
Take “MARPIGIYEKATPKHFTWLERLNFAKELGFDFVELSIDESDERLARLDWSKKERLELVNAIFETGVRIPTITFSGHRRYPLGSNDSEKEARALEMMEKCIEFAQDIGIRNIQLAGYDVYYEEKSPKTRARFLKNLRQACTWAEEAQVILSIEIMDDPFINSIEKYLAVEKEIDSPYLFVYPDAGNVSAWGNDLWSEFYIGHKSIAALHLKDTYAVTESSKGQFRDVPFGQGCVDWEAMFDVLKKTNYNGPFLIEMWSENCETVEETRAAIKEAQDFLYPLIEKAGLR”: the “soluble on expression in E. coli” value is “not soluble”.
Under “MARPKTQSERMIILERIIGLVKEQGRITTNDVVAIFGVHRTTAEKYLRIALERGGFIRHGRCGIFRDQRAVIDYDLRRYSSSQVTGFSALPVLEKSPVMQVYGASKMSINKGGAQ” stands “not soluble”; under “MARRIGHPYQNRTPPKRKKPRTSFTRIQVAELEKRFHKQKYLASAERAALARGLKMTDAQVKTWFQNRRTKWRRQTAEEREAERQAANRLMLS”, “soluble”.

Source of the values: the DeepSol protein solubility set.
